# Data published in article PMC2120044 (The Journal of Cell Biology, 1994).
# Biological target: the molecule itself
# Test: SEC
protein,measurement,value
"cofactor A purified from bovine testis (natural protein, UniProt P48427 1-108, looked up) MADPRVRQIKIKTGVVKRLVKEKMMYEKEAKQQEEKIEKMKAEDGENYAIKKQAEILQESRMMIPDCQRRLEAAHTDLLQLLESEKDLEEAEEYKEARLVLDSVKLEA",stoichiometry N,2
